Where a chain is given by its changes, count along the chain named. Numbered stars: 1 amine (or outer) side, 2 acyl side, 3 side chain; on linkers, the order of the positions; unused ones are H or OH. Bridge positions count the residues as written; N and C are the ends. Square brackets hold non-standard residues; d marks the D form. Primed or numbered codes have the meaning given here. * marks the point of attachment. thioacetal = thioacetal linkage between two cysteines (intrachain bond at the bracketed Cys); C20 diacid = O=C(O)CCCCCCCCCCCCCCCCCCC(=O)*; C16 diacid = O=C(O)CCCCCCCCCCCCCCC(=O)*; γGlu = O=C(O)[C@H](CCC(=O)[*:2])N[*:1]; 4Pal = N[C@@H](Cc1ccncc1)C(=O)O; thioacetal″ = not defined here; Aib = CC(C)(N)C(=O)O; βAla = NCCC(=O)O
T1: human NPRA (human, UniProt P16066 33-1061)
T1 sequence (looked up): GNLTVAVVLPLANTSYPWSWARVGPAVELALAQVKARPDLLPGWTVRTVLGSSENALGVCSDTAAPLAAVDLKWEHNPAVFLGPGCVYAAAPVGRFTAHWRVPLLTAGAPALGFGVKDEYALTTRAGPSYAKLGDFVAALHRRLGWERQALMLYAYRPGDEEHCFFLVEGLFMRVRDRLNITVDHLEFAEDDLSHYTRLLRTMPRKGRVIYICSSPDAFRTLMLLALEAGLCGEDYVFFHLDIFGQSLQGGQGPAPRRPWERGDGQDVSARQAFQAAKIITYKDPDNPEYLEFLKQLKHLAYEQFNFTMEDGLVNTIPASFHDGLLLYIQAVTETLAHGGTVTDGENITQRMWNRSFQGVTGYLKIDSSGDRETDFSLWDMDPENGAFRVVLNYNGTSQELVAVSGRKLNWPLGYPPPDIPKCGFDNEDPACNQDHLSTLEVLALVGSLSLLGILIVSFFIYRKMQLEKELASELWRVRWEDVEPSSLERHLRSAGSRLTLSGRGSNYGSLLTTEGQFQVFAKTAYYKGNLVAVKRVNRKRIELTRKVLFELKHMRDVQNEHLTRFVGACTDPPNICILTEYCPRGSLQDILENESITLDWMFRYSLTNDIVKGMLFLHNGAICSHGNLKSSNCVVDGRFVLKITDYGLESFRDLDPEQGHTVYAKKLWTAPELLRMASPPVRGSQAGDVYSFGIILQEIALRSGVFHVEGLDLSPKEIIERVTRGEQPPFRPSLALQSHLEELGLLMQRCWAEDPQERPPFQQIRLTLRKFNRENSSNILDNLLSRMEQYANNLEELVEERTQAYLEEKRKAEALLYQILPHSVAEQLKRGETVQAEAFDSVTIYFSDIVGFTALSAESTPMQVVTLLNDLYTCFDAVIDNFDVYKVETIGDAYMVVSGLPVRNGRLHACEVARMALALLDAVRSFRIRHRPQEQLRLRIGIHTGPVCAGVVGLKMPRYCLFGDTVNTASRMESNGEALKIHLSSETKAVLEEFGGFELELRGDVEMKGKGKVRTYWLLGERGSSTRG

T2: rat NPRA (rat, UniProt P18910 29-1057)
T2 sequence (looked up): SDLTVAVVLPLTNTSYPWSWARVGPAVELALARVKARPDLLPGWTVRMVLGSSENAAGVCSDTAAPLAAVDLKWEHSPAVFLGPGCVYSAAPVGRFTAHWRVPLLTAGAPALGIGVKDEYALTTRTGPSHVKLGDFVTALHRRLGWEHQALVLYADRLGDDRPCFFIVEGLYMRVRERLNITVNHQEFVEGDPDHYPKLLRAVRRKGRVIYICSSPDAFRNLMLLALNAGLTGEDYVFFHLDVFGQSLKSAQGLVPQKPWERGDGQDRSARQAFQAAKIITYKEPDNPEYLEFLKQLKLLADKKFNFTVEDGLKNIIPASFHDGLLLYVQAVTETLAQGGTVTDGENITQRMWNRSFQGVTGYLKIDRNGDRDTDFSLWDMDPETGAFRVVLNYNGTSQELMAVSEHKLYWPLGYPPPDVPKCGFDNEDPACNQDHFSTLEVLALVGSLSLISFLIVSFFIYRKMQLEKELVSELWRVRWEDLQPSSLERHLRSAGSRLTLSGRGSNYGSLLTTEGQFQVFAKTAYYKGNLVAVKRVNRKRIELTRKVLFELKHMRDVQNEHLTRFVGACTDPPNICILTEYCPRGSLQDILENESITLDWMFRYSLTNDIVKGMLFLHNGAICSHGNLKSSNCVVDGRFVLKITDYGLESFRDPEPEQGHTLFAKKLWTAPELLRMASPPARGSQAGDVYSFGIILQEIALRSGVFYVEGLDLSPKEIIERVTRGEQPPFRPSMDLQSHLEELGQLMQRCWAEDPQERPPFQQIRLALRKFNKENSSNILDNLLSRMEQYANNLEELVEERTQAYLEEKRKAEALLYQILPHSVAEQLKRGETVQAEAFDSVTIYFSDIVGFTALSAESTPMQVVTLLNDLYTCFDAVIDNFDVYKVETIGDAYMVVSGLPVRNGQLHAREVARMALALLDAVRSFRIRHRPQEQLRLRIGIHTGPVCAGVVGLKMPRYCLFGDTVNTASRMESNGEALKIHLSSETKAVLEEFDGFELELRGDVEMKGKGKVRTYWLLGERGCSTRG

B1: Example 76 (peptide)
peptide: {C20 diacid}-[γGlu]EKEKEKGEK[βAla]RSSCFGGRIDRIGHYSGLGCPSFRHGGKSSGAPPPS-NH2
modifications: bridge 15-31 via thioacetal
B2: Example 81 (peptide)
peptide: {C20 diacid}-[γGlu]EKEKEKGS[4Pal]RRSSCFGKRIDRIGHYSGLGCPSFRHGGKSSGAPPPS-NH2
modifications: bridge 15-31 via thioacetal″; reading uncertain
B3: Example 68 (peptide)
peptide: {C20 diacid}-[γGlu]EKEKEKGS[4Pal]RRSSCFGGRIDRIGHQSGLGCPSFRHGGPPS[Aib]KPPPK-NH2
modifications: bridge 15-31 via thioacetal
B4: Example 71 (peptide)
peptide: {C20 diacid}-[γGlu]EKEKEKGS[4Pal]RRSSCFGGRIDRIGHQSGLGCPSFRHGGPPS[Aib]KPPPK-NH2
modifications: bridge 15-31 via thioacetal
B5: Example 72 (peptide)
peptide: {C20 diacid}-[γGlu]EKEKEKGS[4Pal]RRSSCFGGRIDRIGHQSGLGCPSFRHGGKSSGAPPPS-NH2
modifications: bridge 15-31 via thioacetal
B6: Example 75 (peptide)
peptide: SXRRSSCFGGRIDRIGHQSGLGCPSFRHGGKSSGAPPPS
modifications: HOOC-(CH2)18-CO-(γGlu)-EKEKEKG-PEG24-S-4Pal-RRSS[CFGGRIDRIGHQSGLGC]PSFRHGGKSSGAPPPS-NH2; thioacetal linkage between the bracketed Cys
B7: Example 86 (peptide)
peptide: B6 peptide
modifications: HOOC-(CH2)18-CO-(γGlu)-EKEKEKG-(AEEA)6-S-4Pal-RRSS[CFGGRIDRIGHQSGLGC]PSFRHGGKSSGAPPPS-NH2; thioacetal linkage between the bracketed Cys
B8: Example 82 (peptide)
peptide: B6 peptide
modifications: HOOC-(CH2)18-CO-(γGlu)-EKEKEKG-PEG12-S-4Pal-RRSS[CFGGRIDRIGHQSGLGC]PSFRHGGKSSGAPPPS-NH2; thioacetal linkage between the bracketed Cys
B9: Example 87 (peptide)
peptide: B6 peptide with G10K
modifications: HOOC-(CH2)18-CO-(γGlu)-EKEKEKG-(AEEA)8-S-4Pal-RRSS[CFGKRIDRIGHQSGLGC]PSFRHGGKSSGAPPPS-NH2; thioacetal linkage between the bracketed Cys
B10: Example 83 (peptide)
peptide: B6 peptide
modifications: HOOC-(CH2)18-CO-(γGlu)-EKEKEKG-(AEEA)4-S-4Pal-RRSS[CFGGRIDRIGHQSGLGC]PSFRHGGKSSGAPPPS-NH2; thioacetal linkage between the bracketed Cys
B11: Example 74 (peptide)
peptide: {C20 diacid}-[γGlu]EKEKEKGEK[βAla]RSSCFGGRIDRIGHYSGLGCPSFRHGGKSSGAPPPS-NH2
modifications: bridge 15-31 via thioacetal
B12: Example 80 (peptide)
peptide: {C20 diacid}-[γGlu]EKEKEKGS[4Pal]RRSSCFGRKIDRIGHQSGLGCPSFRHGGKSSGAPPPS-NH2
modifications: bridge 15-31 via thioacetal
B13: Example 4 (peptide)
peptide: EKXRSSCFGKRIDRIGHQSGLGCPSFRHGSPSSGAPPPS
modifications: HOOC-(CH2)18-CO-(γGlu)-EKEKEKG-PEG24-EK-βAla-RSS[CFGKRIDRIGHQSGLGC]PSFRHGSPSSGAPPPS-NH2; thioacetal linkage between the bracketed Cys
B14: Example 73 (peptide)
peptide: {C16 diacid}-[γGlu]EKEKEKGEK[βAla]RSSCFGGRIDRIGHYSGLGCPSFRHGGKSSGAPPPS-NH2
modifications: bridge 15-31 via thioacetal
B15: Example 70 (peptide)
peptide: {C20 diacid}-[γGlu]EKEKEKGEK[βAla]RSSCFGGRIDRIGHYSGLGCPSFRHGGPSSGAPPPS-NH2
modifications: bridge 15-31 via thioacetal
B16: Example 69 (peptide)
peptide: XEKEKEKGSXRRSSCFGGRIDRIGHQSGLGCPSFRHGGPSSGAPPPS
modifications: not fully specified; HOOC-(CH2)18-CO-(γGlu)-EKEKEKGS-4Pal-RRSS[CFGGRIDRIGHQSGLGC]PSFRHGGPSSGAPPPS-NH2; thioacetal linkage between the bracketed Cys
B17: Example 84 (peptide)
peptide: SXRRSSCFGGRIDRIGHQSGLGCPSFRHGGPPSXKPPPK
modifications: HOOC-(CH2)18-CO-(γGlu)-EKEKEKG-PEG24-S-4Pal-RRSS[CFGGRIDRIGHQSGLGC]PSFRHGGPPS-Aib-KPPPK-NH2; thioacetal linkage between the bracketed Cys
B18: Example 79 (peptide)
peptide: {C20 diacid}-[γGlu]EKEKEKGS[4Pal]RRSSCFGKRIDRIGHQSGLGCPSFRHGGKSSGAPPPS-NH2
modifications: bridge 15-31 via thioacetal

Target: T1, human NPRA
Test: cell-based or functional assay

Binder	cGMP Assay (EC50, pM) w/BSA [pM]	cGMP Assay (EC50, pM) w/Casein [pM]
B1	79900	2620
B2	5710	388
B3	–	924
B4	–	594
B5	46400	588
B6	17000	1060
B7	25200	1020
B8	32600	623
B9	3380	621
B10	38400	1040
B11	171000	1590
B12	4750	234
B13	6180	813
B14	5820	1230
B15	92500	1840
B16	61400	–
B17	9730	1010
B18	4580	273

Target: T2, rat NPRA
Test: cell-based or functional assay

Binder	cGMP Assay (EC50, pM) w/BSA [pM]	cGMP Assay (EC50, pM) w/Casein [pM]
B1	607000	8280
B2	127000	1910
B3	1.28e+06	12100
B4	594000	21000
B5	1.07e+06	40500
B6	533000	23800
B7	868000	17900
B8	836000	25400
B9	463000	8870
B10	860000	16700
B11	1.13e+06	5820
B12	364000	3550
B13	519000	22500
B14	76400	26000
B15	712000	11800
B16	804000	–
B17	547000	24600
B18	261000	3440

Reference: patent US20240174727A1, “LONG-ACTING NATRIURETIC PEPTIDES AND USES THEREOF” (Eli Lilly and Company, priority 2022, published 2024)
